# Data: the RNAGym collection of RNA variant scans (doi:10.7554/elife.80360)
# B1: HDV Ribozyme (parent)
# chain: GGCCGGCAUGGUCCCAGCCUCCUCGCUGGCGCCGGCUGGGCAACAUUCCGAGGGGACCGUCCCCUCGGUAAUGGCGAAUGGGACCCA
# Variants of: B1
# Assay: self-cleavage, relative activity (ratio to wild type); higher = more cleavage; co-transcriptional
row,Variant,self-cleavage
1,A16U G80C,0.145
2,A16U G80U,0.41
3,G17A A71U,0.499
4,G17A A71G,0.675
5,G17A U60A,0.787
6,C15U C19U,0.0767
7,C15U C19G,0.0997
8,A16G C64U,0.942
9,A16U C86G,0.853
10,A16U C21U,0.122
11,A16C U79A,1.06
12,A16C U79C,0.8
13,A16U C30G,0.119
14,A16U C30U,0.68
15,A16C G29C,0
16,C15G U23C,0.332
17,C15G U23A,0.68
18,C15U G17U,0.415
19,A16G G25U,0.0875
20,A16G G25A,0.192
21,G17A A51G,0.782
22,G17A A51C,0.755
23,C15G G35C,0.0791
24,C15G G35A,0.196

row,Variant,self-cleavage
1,A16U A77U,0.511
2,A16G C21U,0.0615
3,A16U G34C,0.369
4,A16U G34A,0.166
5,C15U U79C,0.849
6,C15U U79A,1.11
7,A16G C44G,0.767
8,G17A G38U,0.1
9,A16U U27G,0.665
10,A16G G73U,0.391
11,A16U C18A,0.107
12,A16G U47A,1.16
13,A16G U47C,0.962
14,A16G G35A,0.696
15,G17A A77G,0.295
16,G17A A77C,0.0978
17,A16G A70C,1.04
18,A16G A70G,1.33
19,A16C A78C,0.166
20,A16C A78U,0.256
21,A16C A43G,0.138
22,A16U U20C,0.277
23,A16U G55U,1.09
24,A16U G55A,0.784

row,Variant,self-cleavage
1,A16C U47A,0.688
2,A16U G40A,0.928
3,A16G C86U,1.2
4,A16G C86G,1.2
5,A16G C86A,0.76
6,C15G C22A,0.0504
7,C15G C22G,0.119
8,A16U G35C,0.128
9,C15U G34C,0.268
10,C15U G34U,0.293
11,C15U A45C,0.277
12,A16G G76U,1.29
13,A16C C61U,0.798
14,G17A U37G,0.172
15,G17A U37C,1.1
16,C15G U60G,0.712
17,C15U G54A,0.776
18,C15U G54C,1
19,A16C G25C,0
20,A16U G39A,0.32
21,A16U G39U,0.403
22,G17C A77C,0.277
23,G17A C86U,0.885
24,C15G A87U,0.475

row,Variant,self-cleavage
1,A16U G25U,0.166
2,A16U G25A,0.0707
3,G17A G52C,0.923
4,A16C G52A,0.751
5,A16C G52C,1.04
6,A16C G52U,0.643
7,C15U G29U,0.0594
8,C15U G29A,0.154
9,C15U C18U,0.44
10,C15U U72G,0.665
11,C15U C64A,0.636
12,C15U G53A,0.912
13,A16C C57A,0.852
14,G17C A70U,0.277
15,G17A C61A,0.594
16,A16G C33U,0.802
17,C15U C24U,0.717
18,C15G G28U,0.0437
19,A16U C26A,1.05
20,A16G A87G,0.892
21,A16G A87U,0.939
22,C15G G54U,0.59
23,A16G C84U,0.525
24,A16G C84A,0.7

row,Variant,self-cleavage
1,C15G C19G,0
2,A16G U46A,0.646
3,C15G C84A,0.519
4,C15G U69C,0.65
5,G17A C64U,0.722
6,G17A C64A,0.645
7,A16G G54C,1.08
8,A16C G50U,0.692
9,C15G U20A,0.128
10,G17C A45G,0.119
11,G17C A45C,0.0519
12,A16G C63G,0.767
13,G17A U23G,0.427
14,G17A C36A,0.138
15,C15U G28A,0.0692
16,A16C A70C,0.731
17,C15G G59A,0.831
18,C15G G59C,0.767
19,C15G U47A,0.723
20,A16G A77C,0
21,A16U C63U,1.14
22,A16U C63A,1.08
23,C15G U46A,0.399
24,G17A G54C,0.458

row,Variant,self-cleavage
1,G17A C49A,0.727
2,A16G U20C,0.128
3,A16U U72A,0.554
4,C15U G55A,0.889
5,C15U G55C,0.895
6,A16C U27G,0.138
7,G17A A83C,0.665
8,G17A U79G,0.388
9,A16C C58A,0.582
10,A16C U23C,0.87
11,A16U C24U,0.314
12,C15G G55U,0.677
13,C15G C58A,0.437
14,G17A A45C,0.415
15,A16U C75G,0.119
16,G17A U20G,0.156
17,G17A U20C,0.268
18,A16C G80U,0.171
19,A16C G80C,0.201
20,A16G U27A,0.703
21,G17A G81A,0.151
22,C15U C26A,1.05
23,C15U C36A,0.208
24,G17A U69A,0.731

row,Variant,self-cleavage
1,G17A A87U,0.708
2,A16U U65A,0.831
3,A16U U65C,0.965
4,A16U U79G,1.13
5,A16G A71C,0.575
6,A16G A71U,1.01
7,A16U U69G,1.16
8,G17A C58A,0.746
9,C15U C44U,0.707
10,C15U G73A,0.302
11,C15U G73C,0.429
12,C15G C32U,0.437
13,A16C U37C,0.831
14,A16C U37G,0.0923
15,A16C U37A,0
16,A16G A56G,0.864
17,G17C A56U,0.427
18,A16C C48A,0.987
19,A16G C57A,1.18
20,G17A G25U,0.0277
21,C15G G82U,0.229
22,C15G C86G,0.317
23,A16G G29U,0.0354
24,A16C G53C,0.475

row,Variant,self-cleavage
1,A16C G53A,0.674
2,A16G C22G,0.185
3,A16G C22A,0.199
4,C15G U37C,0.875
5,C15G U37A,0
6,C15G U37G,0
7,A16C A83G,0.877
8,A16C U60C,0.369
9,A16C U60A,1.11
10,C15G C85G,0.196
11,C15G C85U,0.453
12,A16C C22G,0.0426
13,A16U G59A,0.967
14,A16U C22G,0.161
15,A16U C22U,0.612
16,A16C C63G,0.633
17,A16U G53C,1.01
18,G17A U47G,0.657
19,G17A C63G,0.633
20,G17A C63A,0.611
21,C15G G74U,0.0875
22,C15G C24A,0.482
23,G17C A87C,0.354
24,G17C A87U,0.171

row,Variant,self-cleavage
1,C15U C30G,0.0707
2,C15G G52A,0.807
3,G17A C66U,0.607
4,A16U U47G,0.692
5,A16G G28A,0.131
6,A16G G31A,0.46
7,A16U A42C,0.262
8,C15U U69G,0.858
9,C15U G39C,0.0639
10,C15U G39A,0.151
11,A16G C66U,0.988
12,G17A C24G,0.0791
13,C15G C62U,0.665
14,C15U G52C,1.03
15,C15U G52U,1.21
16,A16C G59C,0.974
17,A16U A45C,0.462
18,A16U A45U,0.831
19,C15G G68C,0.511
20,G17C A83C,0.244
21,A16C G34A,0.18
22,G17A C30U,0.986
23,A16C G28U,0.0437
24,A16U C64U,0.866

row,Variant,self-cleavage
1,A16G A45C,0.506
2,A16C C19U,0.266
3,A16C C18U,0.375
4,A16G U72C,0.831
5,G17A G40C,0.113
6,A16U U23C,0.831
7,A16C G82A,0.72
8,C15G C21U,0.0405
9,C15G C21G,0
10,C15G C21A,0.0707
11,C15G C63U,0.394
12,C15G C63G,0.475
13,C15G G81U,0.297
14,A16G C41U,1.22
15,A16C C75U,0.138
16,A16C C75A,0.133
17,A16U C44U,0.6
18,A16U C44A,0.598
19,G17A A78G,0.262
20,G17A A78U,0.242
21,G17A C85A,0.727
22,A16C C49A,0.609
23,A16C C49G,0.923
24,A16C C49U,0.617

row,Variant,self-cleavage
1,A16G G17A,0.617
2,A16U G67A,0.988
3,G17A G73U,0.188
4,G17A G35C,0.156
5,A16U G52C,0.696
6,A16G C30U,0.665
7,A16U C57U,0.831
8,A16G C32G,0.145
9,A16G C32U,0.811
10,A16G C32A,0.107
11,A16C U72A,0.437
12,A16G C75A,0.122
13,A16G G39U,0.582
14,A16U A78G,0.332
15,C15U G76U,1.2
16,A16C A42C,0.192
17,C15G G53A,0.353
18,A16C A87G,0.769
19,A16U A70U,0.764
20,C15U C61G,0.898
21,A16U A87G,0.968
22,A16U A87C,1.04
23,G17A G67C,0.659
24,A16U A83G,0.567

row,Variant,self-cleavage
1,A16U A83U,0.584
2,C15U G31U,0.248
3,C15U G31C,0.208
4,A16U C58G,0.807
5,A16U G68U,1.18
6,C15G G76U,0.831
7,C15U A83U,0.26
8,C15U A83G,0.45
9,A16C C26A,0.831
10,A16C C26U,0.886
11,G17A C44A,0.306
12,G17A C44U,0.231
13,C15U A43G,0.138
14,C15G G39U,0.128
15,A16C C21A,0.0437
16,A16C C21U,0.199
17,A16C C21G,0.119
18,G17A C57G,0.674
19,G17A A43U,0.237
20,C15U A77C,0.185
21,C15G G73C,0.231
22,G17A G55U,0.762
23,A16U C66U,1.05
24,A16U A71C,0.942

row,Variant,self-cleavage
1,C15U A78C,0.166
2,A16G G81C,0.369
3,A16G G81U,0.489
4,A16U G28A,0.0475
5,G17A G39C,0
6,G17A U46A,0.308
7,G17A U46G,0.229
8,A16C C84U,0.727
9,C15G C57A,0.703
10,A16U C32U,0.727
11,A16U C32A,0.177
12,G17A U72G,0.378
13,G17A U72C,0.141
14,A16G U60C,1.14
15,C15U C21G,0.0898
16,C15G G34U,0.19
17,A16G A43C,0.277
18,A16U C19A,0.285
19,G17A G59A,0.635
20,G17A G59C,0.66
21,G17A G80C,0.345
22,C15G G40A,0.762
23,C15G G40U,0.354
24,G17A G28U,0.122

row,Variant,self-cleavage
1,A16U C48A,1.07
2,A16U C48U,1.07
3,C15G C41G,0.289
4,A16U G76C,0.973
5,A16U G76A,0.939
6,G17A C75G,0.0773
7,C15U C49U,0.997
8,A16U G74U,0.394
9,C15U C85A,0.962
10,C15U C85U,0.906
11,A16C G31C,0.0639
12,A16G C62U,1.13
13,G17A C21G,0.0415
14,A16G G67U,0.831
15,A16G G67A,0.886
16,C15U A16G,1.05
17,C15U A16C,1.33
18,A16G G40C,0.135
19,G17C A51G,0.317
20,G17C A51U,0.443
21,G17A C18A,0.252
22,G17A C18U,0.106
